Consider 1 molecule from US20220332804A1 (CSL INNOVATION, published 2022).

Holding throughout (experiment): SPR, antibody captured, C2 as analyte;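 also: biacore SPR at 37 °C, anti-C2 mAbs captured via goat anti-human IgG on CM5 chips, double-referenced sensorgrams fit to a 1:1 kinetic or steady-state model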
Background: Surface plasmon resonance follows binding to a sensor surface in real time, without labels.

One assay has as its target T1, human C2 L620A (human, UniProt P06681 21-752).
T1 sequence: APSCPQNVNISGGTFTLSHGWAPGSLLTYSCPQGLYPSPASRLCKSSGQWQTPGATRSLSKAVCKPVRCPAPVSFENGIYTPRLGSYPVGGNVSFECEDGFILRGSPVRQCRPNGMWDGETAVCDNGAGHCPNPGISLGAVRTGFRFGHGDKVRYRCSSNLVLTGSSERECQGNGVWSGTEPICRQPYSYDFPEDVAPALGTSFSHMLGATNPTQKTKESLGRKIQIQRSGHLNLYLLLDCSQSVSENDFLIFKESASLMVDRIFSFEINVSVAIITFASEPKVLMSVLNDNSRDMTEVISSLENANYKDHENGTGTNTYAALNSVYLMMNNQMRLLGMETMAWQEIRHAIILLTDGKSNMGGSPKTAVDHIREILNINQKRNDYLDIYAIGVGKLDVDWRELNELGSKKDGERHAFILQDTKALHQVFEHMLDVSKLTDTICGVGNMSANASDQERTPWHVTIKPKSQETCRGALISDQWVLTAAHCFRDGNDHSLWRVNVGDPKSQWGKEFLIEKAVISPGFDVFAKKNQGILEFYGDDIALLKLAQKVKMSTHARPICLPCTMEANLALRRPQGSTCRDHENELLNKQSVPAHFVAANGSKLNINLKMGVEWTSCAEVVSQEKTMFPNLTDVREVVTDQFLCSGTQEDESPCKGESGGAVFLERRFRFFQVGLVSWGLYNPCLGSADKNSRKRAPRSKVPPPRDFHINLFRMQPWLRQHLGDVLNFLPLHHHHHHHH

A further assay concerns the target T2, human C2 K487A (human, UniProt P06681 21-752).
T2 sequence: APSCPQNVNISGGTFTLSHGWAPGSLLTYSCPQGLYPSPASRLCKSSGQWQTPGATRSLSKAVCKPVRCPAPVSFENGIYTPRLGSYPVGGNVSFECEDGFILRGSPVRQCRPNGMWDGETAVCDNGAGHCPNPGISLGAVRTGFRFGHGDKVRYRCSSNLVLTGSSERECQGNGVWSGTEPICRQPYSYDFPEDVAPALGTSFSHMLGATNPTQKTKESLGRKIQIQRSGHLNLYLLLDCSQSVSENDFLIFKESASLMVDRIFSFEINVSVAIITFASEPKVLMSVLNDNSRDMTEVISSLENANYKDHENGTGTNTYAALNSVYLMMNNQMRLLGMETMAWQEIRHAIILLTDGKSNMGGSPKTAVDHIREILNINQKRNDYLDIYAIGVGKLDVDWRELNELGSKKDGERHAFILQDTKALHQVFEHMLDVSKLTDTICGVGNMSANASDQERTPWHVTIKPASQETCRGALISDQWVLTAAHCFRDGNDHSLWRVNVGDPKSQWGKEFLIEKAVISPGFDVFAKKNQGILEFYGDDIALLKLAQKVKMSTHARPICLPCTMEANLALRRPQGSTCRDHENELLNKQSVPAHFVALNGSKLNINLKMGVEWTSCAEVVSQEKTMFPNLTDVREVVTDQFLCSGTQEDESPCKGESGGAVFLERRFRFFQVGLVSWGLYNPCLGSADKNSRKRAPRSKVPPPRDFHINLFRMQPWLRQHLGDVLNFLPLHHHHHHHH

The target of another assay is T3, human C2 E532A (human, UniProt P06681 21-752).
T3 sequence: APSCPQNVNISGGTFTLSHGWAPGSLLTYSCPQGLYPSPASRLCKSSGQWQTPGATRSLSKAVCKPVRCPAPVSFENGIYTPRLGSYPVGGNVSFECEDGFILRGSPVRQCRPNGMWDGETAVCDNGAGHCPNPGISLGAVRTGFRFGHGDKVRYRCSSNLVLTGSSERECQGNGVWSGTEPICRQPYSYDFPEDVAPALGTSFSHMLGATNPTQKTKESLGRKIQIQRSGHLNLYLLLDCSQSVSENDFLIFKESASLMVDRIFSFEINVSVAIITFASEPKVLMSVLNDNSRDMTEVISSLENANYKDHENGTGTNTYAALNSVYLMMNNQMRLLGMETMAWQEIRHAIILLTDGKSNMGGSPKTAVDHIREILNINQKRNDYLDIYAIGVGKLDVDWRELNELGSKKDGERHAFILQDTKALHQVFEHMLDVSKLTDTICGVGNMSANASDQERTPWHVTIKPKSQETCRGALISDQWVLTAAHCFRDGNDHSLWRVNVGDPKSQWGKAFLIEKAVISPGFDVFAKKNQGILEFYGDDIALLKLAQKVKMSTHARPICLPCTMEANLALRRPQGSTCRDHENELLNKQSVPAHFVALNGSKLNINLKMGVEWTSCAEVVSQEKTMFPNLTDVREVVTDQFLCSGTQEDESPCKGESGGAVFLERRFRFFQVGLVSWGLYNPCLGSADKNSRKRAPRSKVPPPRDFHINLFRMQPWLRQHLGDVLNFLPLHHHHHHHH

A further assay has as its target T4, human C2 P486A (human, UniProt P06681 21-752).
T4 sequence: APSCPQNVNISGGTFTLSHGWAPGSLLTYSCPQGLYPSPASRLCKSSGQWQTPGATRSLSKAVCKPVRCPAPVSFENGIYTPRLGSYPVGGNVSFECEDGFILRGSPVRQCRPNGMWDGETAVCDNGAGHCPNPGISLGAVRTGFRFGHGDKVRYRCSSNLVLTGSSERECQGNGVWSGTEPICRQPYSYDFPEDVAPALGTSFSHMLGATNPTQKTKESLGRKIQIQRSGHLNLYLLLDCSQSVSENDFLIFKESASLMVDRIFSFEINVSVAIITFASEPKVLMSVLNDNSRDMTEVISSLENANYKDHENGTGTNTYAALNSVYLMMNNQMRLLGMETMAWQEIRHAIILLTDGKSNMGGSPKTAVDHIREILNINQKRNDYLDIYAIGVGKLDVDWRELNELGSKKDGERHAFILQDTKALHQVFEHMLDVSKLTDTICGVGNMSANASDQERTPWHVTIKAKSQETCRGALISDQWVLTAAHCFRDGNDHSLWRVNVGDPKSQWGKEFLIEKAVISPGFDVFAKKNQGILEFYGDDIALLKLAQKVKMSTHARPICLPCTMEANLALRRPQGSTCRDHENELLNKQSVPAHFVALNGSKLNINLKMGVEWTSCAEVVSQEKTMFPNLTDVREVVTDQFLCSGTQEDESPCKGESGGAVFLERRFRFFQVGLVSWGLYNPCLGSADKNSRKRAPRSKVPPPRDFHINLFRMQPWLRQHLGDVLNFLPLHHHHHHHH

B1: RF16-226 (antibody, human IgG4 S228P, lambda)
heavy: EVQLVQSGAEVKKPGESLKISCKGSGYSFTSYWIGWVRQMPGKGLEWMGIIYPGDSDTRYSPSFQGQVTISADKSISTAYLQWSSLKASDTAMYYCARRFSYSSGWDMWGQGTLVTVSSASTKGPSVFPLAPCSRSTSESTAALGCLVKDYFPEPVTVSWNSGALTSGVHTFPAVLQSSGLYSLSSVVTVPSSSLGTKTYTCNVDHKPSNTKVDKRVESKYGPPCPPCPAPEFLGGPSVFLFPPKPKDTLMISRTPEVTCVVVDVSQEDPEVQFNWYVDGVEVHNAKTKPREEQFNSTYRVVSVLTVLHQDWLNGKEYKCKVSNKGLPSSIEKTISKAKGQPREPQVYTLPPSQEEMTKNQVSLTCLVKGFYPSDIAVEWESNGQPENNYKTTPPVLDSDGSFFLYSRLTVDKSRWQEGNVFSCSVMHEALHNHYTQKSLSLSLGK
light: SYELTQPPSVSVSPGQTARITCSGDALTSKYVAWYQQKSGLAPLLVIYEDTRRPSGIPAKFSGSSSGSVATLTISGAHGDDEADYYCYSTDASGHQRVFGGGTKLTVLSQPKAAPSVTLFPPSSEELQANKATLVCLISDFYPGAVTVAWKADGSPVKAGVETTKPSKQSNNKYAASSYLSLTPEQWKSHRSYSCQVTHEGSTVEKTVAPTECS
notes: pH-dependent anti-C2 antibody from a phage display library; also called WT
Turning to B1, the Kd with human C2 L620A was 0.0111 µM; with human C2 K487A, 0.093 µM; with human C2 E532A, 0.0172 µM; with human C2 P486A, 0.0111 µM.

Usually Kd stands for the concentration at which binding is half-saturated. Lower therefore signals a tighter complex.
